The values below come from PMC10765524, “Cryo-EM structures of PP2A:B55–FAM122A and PP2A:B55–ARPP19” (Nature, 2023).

The chains are these.
B4: B55 (subunit of the PP2A:B55 holoenzyme) (natural protein, UniProt P63151 1-447, looked up)
chain: MAGAGGGNDIQWCFSQVKGAVDDDVAEADIISTVEFNHSGELLATGDKGGRVVIFQQEQENKIQSHSRGEYNVYSTFQSHEPEFDYLKSLEIEEKINKIRWLPQKNAAQFLLSTNDKTIKLWKISERDKRPEGYNLKEEDGRYRDPTTVTTLRVPVFRPMDLMVEASPRRIFANAHTYHINSISINSDYETYLSADDLRINLWHLEITDRSFNIVDIKPANMEELTEVITAAEFHPNSCNTFVYSSSKGTIRLCDMRASALCDRHSKLFEEPEDPSNRSFFSEIISSISDVKFSHSGRYMMTRDYLSVKIWDLNMENRPVETYQVHEYLRSKLCSLYENDCIFDKFECCWNGSDSVVMTGSYNNFFRMFDRNTKRDITLEASRENNKPRTVLKPRKVCASGKRKKDEISVDSLDFNKKILHTAWHPKENIIAVATTNNLYIFQDKVN
notes: B55 regulatory subunit, printed as full-length B55 1–477; The B55 chain of m1, written alone for the contacts seen in the cryo-EM structures; also called B55WT; source: Expi293F, purified as part of PP2A:B55; not shown: GFP, N-terminal, cleaved
B6: tpS62tpS104ARPP19 (ARPP19 thiophosphorylated by MASTL on Ser62 and Ser104) (natural protein, UniProt P56211 1-112, looked up)
chain: MSAEVPEAASAEEQKEMEDKVTSPEKAEEAKLKARYPHLGQKPGGSDFLRKRLQKGQKYFDSGDYNMAKAKMKNKQLPTAAPDKTEVTGDHIPTPQDLPQRKPSLVASKLAG
modifications: thiophosphoserine at 62 and 104

The target in test [1] is T1, ARPP19(S10C) labelled with Alexa Fluor 488 (ARPP19-tracer) (UniProt P56211 1-112, S10C, Alexa Fluor 488 C5 Maleimide label).
T1 construct: ARPP19, S10C; source: E. coli BL21 (DE3), purified; labelled, recovered by analytical SEC; not shown: His6, N-terminal, cleaved; MBP, N-terminal, cleaved
T1 sequence (looked up): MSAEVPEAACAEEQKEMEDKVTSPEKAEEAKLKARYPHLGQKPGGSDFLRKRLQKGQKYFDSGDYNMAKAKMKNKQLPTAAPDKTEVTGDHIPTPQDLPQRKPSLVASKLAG
The experiment in a line: fluorescence polarisation; PP2A:B55 (or B55LL) serially diluted into 0.1 nM Alexa Fluor 488 tracer (FAM122AID-tracer or ARPP19-tracer); 10 mM HEPES pH 7.0, 150 mM NaCl, 0.5 mM TCEP, 0.01% Triton X-100, 0.1 mg/ml BSA; 30 min at room temperature. The note with it: both partners purified. On the technique in general: Fluorescence polarisation rises when a labelled molecule tumbles more slowly, as on binding a larger partner.

Test [2] has as its target B6. As to the kind of experiment: NMR titration; 2D 1H,15N HSQC of 15N-labelled FAM122A or ARPP19 (2–6 μM) with an excess of unlabelled PP2A:B55 or B55LL; peak intensity loss; 283 K; NMR buffer pH 6.3, 150 mM NaCl. The note with it: both partners purified.
Test [3] concerns the target T2, cAMP regulated phosphoprotein 19 (ARPP19), unphosphorylated (UniProt P56211 1-112).
T2 construct: 15N-labelled in the NMR experiments; source: E. coli BL21 (DE3), purified (HisTrap, TEV cleavage, Ni-NTA, heat, SEC); not shown: His6, N-terminal, cleaved; MBP, N-terminal, cleaved
T2 sequence (looked up): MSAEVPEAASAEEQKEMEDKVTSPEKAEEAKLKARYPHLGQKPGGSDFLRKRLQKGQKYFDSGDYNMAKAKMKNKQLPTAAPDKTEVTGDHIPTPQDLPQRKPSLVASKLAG
Described as above. The note with it: both partners purified.

In test [4] the target is PP2A:B55 holoenzyme (PP2Aa, B55, PP2Ac) (UniProt P30153 9-589; P63151 1-447; P67775 1-309, C-terminal residue fully methylated (mLeu309)). The experiment in a line: cell-based or functional assay.
PP2A:B55 holoenzyme (PP2Aa, B55, PP2Ac), sequence (P30153 9-589, chain 1 of 2): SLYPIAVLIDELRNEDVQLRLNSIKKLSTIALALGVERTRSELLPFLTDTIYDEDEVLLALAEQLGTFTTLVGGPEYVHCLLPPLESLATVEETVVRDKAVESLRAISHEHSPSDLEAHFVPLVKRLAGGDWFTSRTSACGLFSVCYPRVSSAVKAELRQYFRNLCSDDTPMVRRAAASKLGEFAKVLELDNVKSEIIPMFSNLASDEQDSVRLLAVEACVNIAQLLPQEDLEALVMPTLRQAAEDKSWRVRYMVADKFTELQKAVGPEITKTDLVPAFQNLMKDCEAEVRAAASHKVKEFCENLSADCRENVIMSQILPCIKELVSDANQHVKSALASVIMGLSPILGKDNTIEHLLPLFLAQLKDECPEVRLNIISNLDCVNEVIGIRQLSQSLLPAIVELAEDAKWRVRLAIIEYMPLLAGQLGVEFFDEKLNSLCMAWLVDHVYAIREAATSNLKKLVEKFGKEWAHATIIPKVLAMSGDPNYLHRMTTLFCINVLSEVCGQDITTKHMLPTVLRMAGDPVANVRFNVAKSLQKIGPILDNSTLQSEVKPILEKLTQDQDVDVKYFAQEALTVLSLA
PP2A:B55 holoenzyme (PP2Aa, B55, PP2Ac), sequence (P67775 whole entry, chain 3 of 2): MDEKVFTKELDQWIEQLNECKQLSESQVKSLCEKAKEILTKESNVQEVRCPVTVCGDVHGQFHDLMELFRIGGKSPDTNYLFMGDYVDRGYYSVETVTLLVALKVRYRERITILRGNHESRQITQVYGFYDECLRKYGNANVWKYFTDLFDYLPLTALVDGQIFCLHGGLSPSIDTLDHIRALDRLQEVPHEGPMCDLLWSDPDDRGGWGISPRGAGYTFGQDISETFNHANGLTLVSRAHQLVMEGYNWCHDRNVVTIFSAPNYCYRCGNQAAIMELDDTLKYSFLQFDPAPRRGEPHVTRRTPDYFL
In test [5] the target is T3, PP2Aa_(9–589) (scaffolding subunit of the PP2A:B55 holoenzyme) (UniProt P30153 9-589).
T3 construct: PP2Aa (PP2A scaffolding A subunit), residues 9-589; The PP2Aa chain of m1, written alone for the contacts seen in the cryo-EM structures; source: E. coli BL21 (DE3), purified (HisTrap, TEV cleavage, Ni-NTA, QTrap, SEC); not shown: His6, N-terminal, cleaved; MBP, N-terminal, cleaved
T3 sequence (P30153 9-589): as the sequence (P30153 9-589, chain 1 of 2) above
The experiment in a line: cryo-EM structure; purified PP2A:B55 incubated with FAM122AID or tpARPP19 at a 1.5 molar ratio; CHAPSO added before vitrification. The following applies: both partners purified.

The target of the next test is T4, YFP–ARPP19 K55A (UniProt P56211 1-112, K55A).
T4 construct: ARPP19; source: HeLa, transiently transfected, in lysate
T4 sequence (looked up): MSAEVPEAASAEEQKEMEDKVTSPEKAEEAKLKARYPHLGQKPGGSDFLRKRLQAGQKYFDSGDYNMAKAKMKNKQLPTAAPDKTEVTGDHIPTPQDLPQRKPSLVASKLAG
The experiment in a line: co-IP; YFP–ARPP19 variants transiently transfected into HeLa cells, precipitated with GFP-Trap beads at 4 °C in 50 mM Tris-HCl pH 7.5, 50 mM NaCl, 1 mM EDTA, 1 mM DTT, 0.1% NP40; western blot for B55α and PP2Ac. The note with it: partners not purified. (In general: A western blot detects proteins with antibodies after separation by electrophoresis.)

In a further test the target is T5, YFP–ARPP19 L49A (UniProt P56211 1-112, L49A).
T5 construct: ARPP19; source: HeLa, transiently transfected, in lysate
T5 sequence (looked up): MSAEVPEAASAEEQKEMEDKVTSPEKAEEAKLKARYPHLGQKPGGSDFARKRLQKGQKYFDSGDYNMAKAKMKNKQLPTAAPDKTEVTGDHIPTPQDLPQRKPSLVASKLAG
The test is described as above. The following applies: partners not purified.

The target in the next test is T6, YFP–ARPP19 F48A (UniProt P56211 1-112, F48A).
T6 construct: ARPP19; source: HeLa, transiently transfected, in lysate
T6 sequence (looked up): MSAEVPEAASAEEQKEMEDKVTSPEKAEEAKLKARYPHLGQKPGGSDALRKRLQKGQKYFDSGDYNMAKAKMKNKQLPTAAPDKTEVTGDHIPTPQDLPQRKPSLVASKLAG
Described as above. The note with it: partners not purified.

The next test has as its target T7, YFP–ARPP19 R52A (UniProt P56211 1-112, R52A).
T7 construct: ARPP19; source: HeLa, transiently transfected, in lysate
T7 sequence (looked up): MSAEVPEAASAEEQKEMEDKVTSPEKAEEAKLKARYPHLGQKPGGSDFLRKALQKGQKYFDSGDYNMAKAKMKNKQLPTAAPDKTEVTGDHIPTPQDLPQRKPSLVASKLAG
Described as above. The following applies: partners not purified.

For another test, the target named is T8, YFP–ARPP19 L53A (UniProt P56211 1-112, L53A).
T8 construct: ARPP19; source: HeLa, transiently transfected, in lysate
T8 sequence (looked up): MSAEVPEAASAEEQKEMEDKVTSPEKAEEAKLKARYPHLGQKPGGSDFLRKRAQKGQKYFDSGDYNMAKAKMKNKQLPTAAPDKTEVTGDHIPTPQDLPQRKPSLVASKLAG
The test is described as above. The note with it: partners not purified.

For the next test, the target named is T9, YFP–ARPP19 R50A (UniProt P56211 1-112, R50A).
T9 construct: ARPP19; source: HeLa, transiently transfected, in lysate
T9 sequence (looked up): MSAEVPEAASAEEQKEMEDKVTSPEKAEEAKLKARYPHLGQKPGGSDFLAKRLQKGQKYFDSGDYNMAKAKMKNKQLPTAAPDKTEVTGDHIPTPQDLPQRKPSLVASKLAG
The test is described as above. The note with it: partners not purified.

For test [6], the target named is B4. The experiment in a line: cryo-EM structure; purified PP2A:B55 incubated with FAM122AID or tpARPP19 at a 1.5 molar ratio; CHAPSO added before vitrification. The note with it: both partners purified.

B1: B55 loopless (B55LL) (domain or fragment)
chain: MAGAGGGNDIQWCFSQVKGAVDDDVAEADIISTVEFNHSGELLATGDKGGRVVIFQQEQENKIQSHSRGEYNVYSTFQSHEPEFDYLKSLEIEEKINKIRWLPQKNAAQFLLSTNDKTIKLWKISNGEASPRRIFANAHTYHINSISINSDYETYLSADDLRINLWHLEITDRSFNIVDIKPANMEELTEVITAAEFHPNSCNTFVYSSSKGTIRLCDMRASALCDRHSKLFEEPEDPSNRSFFSEIISSISDVKFSHSGRYMMTRDYLSVKIWDLNMENRPVETYQVHEYLRSKLCSLYENDCIFDKFECCWNGSDSVVMTGSYNNFFRMFDRNTKRDITLEASRENNKPRTVLKPRKVCASGKRKKDEISVDSLDFNKKILHTAWHPKENIIAVATTNNLYIFQDKVN
notes: linker that replaces B55 residues 126–164; source: Expi293F, purified (GFP-nanobody beads, TEV on-column cleavage, QTrap, SEC); not shown: GFP, N-terminal, cleaved
As for B1, the binding result in test [1], in test [2] and in test [3] was “binds” in each case.

B2: FAM122AID I88A/K89A/S120C (domain or fragment, UniProt Q96E09 29-120, looked up)
chain: GGGLRRSNSAPLIHGLSDTSPVFQAEAPSARRNSTTFPSRHGLLLPASPVRMHSSRLHQAAQEEGMDLINRETVHEREVQTAMQISHSWEEC
modifications: Alexa Fluor 488 C5 Maleimide label (fluorescence polarization assay)
On to B2, for which the “IC50 of PP2A:B55 inhibition (DiFMUP), fold increase against wild type” value in test [4] turned out to be 48 fold.

B3: FAM122AID R84A/L85A/S120C (domain or fragment, UniProt Q96E09 29-120, looked up)
chain: GGGLRRSNSAPLIHGLSDTSPVFQAEAPSARRNSTTFPSRHGLLLPASPVRMHSSAAHQIKQEEGMDLINRETVHEREVQTAMQISHSWEEC
modifications: Alexa Fluor 488 C5 Maleimide label (fluorescence polarization assay)
As to B3, the “IC50 of PP2A:B55 inhibition (DiFMUP), fold increase against wild type” value in test [4] was found to be 38 fold.
Turning to B4, the binding result in test [5] is “binds”.

B5: B55, endogenous in HeLa cells (natural protein, human (endogenous in HeLa), UniProt P63151 1-447, looked up)
chain: MAGAGGGNDIQWCFSQVKGAVDDDVAEADIISTVEFNHSGELLATGDKGGRVVIFQQEQENKIQSHSRGEYNVYSTFQSHEPEFDYLKSLEIEEKINKIRWLPQKNAAQFLLSTNDKTIKLWKISERDKRPEGYNLKEEDGRYRDPTTVTTLRVPVFRPMDLMVEASPRRIFANAHTYHINSISINSDYETYLSADDLRINLWHLEITDRSFNIVDIKPANMEELTEVITAAEFHPNSCNTFVYSSSKGTIRLCDMRASALCDRHSKLFEEPEDPSNRSFFSEIISSISDVKFSHSGRYMMTRDYLSVKIWDLNMENRPVETYQVHEYLRSKLCSLYENDCIFDKFECCWNGSDSVVMTGSYNNFFRMFDRNTKRDITLEASRENNKPRTVLKPRKVCASGKRKKDEISVDSLDFNKKILHTAWHPKENIIAVATTNNLYIFQDKVN
notes: B55 detected with an antibody to B55α; also called B55α; source: endogenous, HeLa lysate
On to B5, for which the “binding, percent of wild type” value in the test with YFP–ARPP19 K55A is about 75%; with YFP–ARPP19 L49A, about 75%; in the test with YFP–ARPP19 F48A, about 50%; in the test with YFP–ARPP19 R52A, under 25%; in the test with YFP–ARPP19 L53A it was under 25%; in the test with YFP–ARPP19 R50A, about 50%.
On to B6, for which, in test [4], the “potency of PP2A:B55 inhibition (DiFMUP) against that of FAM122A” value is about 250 fold.

B7: tpS62ARPP19_(S104A) (singly thiophosphorylated ARPP19) (natural protein, UniProt P56211 1-112, looked up)
chain: MSAEVPEAASAEEQKEMEDKVTSPEKAEEAKLKARYPHLGQKPGGSDFLRKRLQKGQKYFDSGDYNMAKAKMKNKQLPTAAPDKTEVTGDHIPTPQDLPQRKPALVASKLAG
modifications: thiophosphoserine at 62
notes: also called tpARPP19; S62 tpARPP19_(S104A); source: E. coli BL21 (DE3), purified; thiophosphorylated with MASTL kinase and ATP-γ-S; not shown: His6, N-terminal, cleaved; MBP, N-terminal, cleaved
Turning to B7, in test [6], the binding result is given as “binds”.
